Test results as given in US20190169305A1 (TEIKYO HEISEI UNIVERSITY, published 2019).

How the values were obtained:
[1] = target: T1, human TRAIL-R2:alpaca Fc (hTRAIL-R2:Fc) (human; Lama pacos (alpaca)); experiment: SPR, Biacore X-100, multi-cycle kinetics, 4E6 monomer as analyte (0.919-117.6 nM)
T1 construct: also called hTRAIL-R2:Fc antigen; recombinant human TRAIL-R2:Fc antigen
T1 chain: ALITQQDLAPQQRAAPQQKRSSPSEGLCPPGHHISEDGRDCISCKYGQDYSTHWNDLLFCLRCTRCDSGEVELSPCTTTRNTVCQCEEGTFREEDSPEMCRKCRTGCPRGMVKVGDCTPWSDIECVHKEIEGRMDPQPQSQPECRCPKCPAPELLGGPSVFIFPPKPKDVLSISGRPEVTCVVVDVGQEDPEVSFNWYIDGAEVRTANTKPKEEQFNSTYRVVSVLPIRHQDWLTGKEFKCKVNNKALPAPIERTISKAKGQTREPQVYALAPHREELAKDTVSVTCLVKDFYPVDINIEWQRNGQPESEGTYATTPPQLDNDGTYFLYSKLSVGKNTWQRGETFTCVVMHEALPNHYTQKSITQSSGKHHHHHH

[2] = target: T2, human TRAIL-R1:alpaca Fc (hTRAIL-R1:Fc) (human; Lama pacos (alpaca)); experiment: ELISA, antigens coated at 1 µg/ml, VHH monomer at 10 µg/ml, absorbance 450 nm
T2 construct: also called hTRAIL-R1:Fc antigen; recombinant human TRAIL-R1 ECD
T2 chain: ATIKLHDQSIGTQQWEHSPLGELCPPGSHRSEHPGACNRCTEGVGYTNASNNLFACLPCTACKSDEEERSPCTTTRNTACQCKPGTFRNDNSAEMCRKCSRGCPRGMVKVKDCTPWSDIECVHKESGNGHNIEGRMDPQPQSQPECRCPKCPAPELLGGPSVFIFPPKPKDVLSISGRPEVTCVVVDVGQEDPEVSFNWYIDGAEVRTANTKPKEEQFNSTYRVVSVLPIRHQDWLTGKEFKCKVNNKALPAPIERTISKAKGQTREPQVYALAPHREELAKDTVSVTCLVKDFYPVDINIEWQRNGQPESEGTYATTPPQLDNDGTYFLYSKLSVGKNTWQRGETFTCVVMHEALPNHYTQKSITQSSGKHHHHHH

[3] = target: T3, mouse TRAIL-R2:alpaca Fc (mTRAIL-R2:Fc) (mouse; Lama pacos (alpaca), UniProt Q9QZM4 52-177); experiment: as above
T3 construct: range 52-177;range 102-335; also called mTRAIL (mouse TRAIL)-R2:Fc
T3 sequence: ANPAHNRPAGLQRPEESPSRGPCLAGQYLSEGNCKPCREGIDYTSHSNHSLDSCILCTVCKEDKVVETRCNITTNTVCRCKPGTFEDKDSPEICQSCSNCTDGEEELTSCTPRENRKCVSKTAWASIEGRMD

[4] = target: T4, bovine serum albumin (bovine, UniProt P02769 25-607); experiment: ELISA, BSA coated at 1 or 10 µg/ml, 4E6 monomer at 1 µg/ml, detected with anti-Myc 9E10 and anti-mouse IgG HRP, OD450
T4 construct: also called BSA; BSA negative antigen
T4 sequence (P02769 25-607 limits assumed): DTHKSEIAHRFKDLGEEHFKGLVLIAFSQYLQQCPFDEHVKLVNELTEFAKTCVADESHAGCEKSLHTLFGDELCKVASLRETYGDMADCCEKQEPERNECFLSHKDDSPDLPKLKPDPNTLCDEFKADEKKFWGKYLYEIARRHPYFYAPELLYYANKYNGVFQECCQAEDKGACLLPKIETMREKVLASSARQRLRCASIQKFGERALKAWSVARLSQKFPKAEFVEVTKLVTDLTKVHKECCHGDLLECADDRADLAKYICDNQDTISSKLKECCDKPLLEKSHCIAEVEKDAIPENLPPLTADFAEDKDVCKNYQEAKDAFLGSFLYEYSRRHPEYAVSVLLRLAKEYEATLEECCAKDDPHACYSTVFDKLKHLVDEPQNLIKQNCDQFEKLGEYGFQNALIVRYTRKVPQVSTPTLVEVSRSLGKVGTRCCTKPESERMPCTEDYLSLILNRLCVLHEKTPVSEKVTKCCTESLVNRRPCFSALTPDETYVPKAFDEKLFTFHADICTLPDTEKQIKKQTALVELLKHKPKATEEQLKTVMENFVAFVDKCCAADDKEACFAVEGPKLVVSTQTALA

B1: 4E6 monomer (anti-hTRAIL-R2 VHH antibody/Myc-Tag, expressed in E. coli) (VHH)
VHH: EVQLVESGGGSVQAGDSLRLSCAASGRTFGSIRVGWFRQTPGKEREFVAAINRNDGTTYYADSVKGRFTISRDNAKNTVYMQMASLKPEDTAVYYCAAGLQYNRSADRVPVGAVYWGQGTQVTVSS
notes: also called 4E6 VHH monomer; 4E6 monomeric protein
For B1, the Kd [1] was 0.075 nM, the binding result [2] was “no binding (tested: 10 µg/ml)” and the binding result [3] was “no binding (tested: 10 µg/ml)”. B1: no binding (tested: 1 µg/ml) [4].
